Experimental data: the supplement of paper PMC12455559
± gives the standard deviation of the averaged measurements.

Columns and labels:
[1] = PET hydrolysis, aromatic products released after 48 h (umol product/mg enzyme); higher = more PET depolymerization activity
Description: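 HTP-purified, SUMO-cleaved, tagless PET hydrolase candidates (5 ug, 1.43 mg/g PET) were incubated 48 h without shaking with 3.5 mg amorphous PET film (aFilm) or crystalline PET powder (cryPow) in 0.5 mL buffer: NaCitrate pH 4.5/5.5, NaPhosphate pH 6.5/7.5, glycine pH 8.5. Incubation was at 40 or 60 C. Aromatic products (TPA, MHET, BHET) in the supernatant were quantified by UV absorbance at 260/280 nm relative to buffer blanks and expressed per mg enzyme. LCC-ICCG was the positive control on every plate.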

[2] = purified protein yield per well (BCA); higher = higher soluble expression
Summary of the method: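 Values under 25 ug (0.1 mg/mL) are below the detection threshold. Purified protein yield per well was quantified with the Pierce Rapid Gold BCA kit after candidate enzymes, expressed in E. coli C41(DE3), were captured on Ni-charged magnetic beads and released by SUMO protease on an OT-2 robot. Cultures were 2 mL autoinduction with 100 µg/mL kanamycin, run 2 h at 37 °C and then 40 h at 18 °C.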

[3] = substrate: cryPow, 40 °C, pH 4.5
[4] = substrate: cryPow, 40 °C, pH 5.5
[5] = substrate: cryPow, 40 °C, pH 6.5
[6] = substrate: cryPow, 40 °C, pH 7.5
[7] = substrate: cryPow, 60 °C, pH 4.5
[8] = substrate: cryPow, 60 °C, pH 5.5
[9] = substrate: cryPow, 60 °C, pH 6.5
[10] = substrate: cryPow, 60 °C, pH 7.5
[11] = substrate: cryPow, 40 °C, pH 8.5
[12] = substrate: cryPow, 60 °C, pH 8.5

Row | Sequence | PET hydrolysis [1, 3] | PET hydrolysis [1, 4] | PET hydrolysis [1, 5] | PET hydrolysis [1, 6] | purified protein yield per well [2] | PET hydrolysis [1, 7] | PET hydrolysis [1, 8] | PET hydrolysis [1, 9] | PET hydrolysis [1, 10] | also measured
1 | AAPAGPAALPARPLAAAPADSPYERGPAPTEASITAERGPFAIEKIDVPAGSGTGFNRGTIYAPTDTSQGTFGAIAVSPGFMSPQSVIDWYGPRLASQGFVVMTLETKSLLDAPAARGDQLLAALDYMTGKSKAKDRIDASRLAVMGHSMGGGGTLEAANKRASLQAAVPLAPWDTNYDWKNVQAPTMIMGADNDTIAPADSMAERYYGTLTAVPEKAYLELRNAGHTTFNAPNTTIAKYAIAWMKRFVDDDARYEQFLCPEPSPSTTIAQYEGTCPTG [TEP067] | 5 | 12 | 14 | < 3 | 49.7 µg |  |  |  |  | 
2 | ADNPYERGPAPTNASIEAVRGPYAVSQATVSSLAVTGFGGGTIYYPTTTSDGTFGAVAISPGYTGTQSSIAWLGPRLASQGFVVFTIDTNTTLDQPDSRGRQLLAALDYLTRVSPLRTRVDSTRLGVMGHSMGGGGSLEAAKSRPSLQAAIPLTPWNLDKTWPEIQTPTLIVGADGDSIAPVSSHAEPFYENLPSSLDRAYLELNGASHFAPNSSNTTIAKYSISWLKRFIDNDTRYEQFLCPLPRPSLTIEEYRGNCPHQS [TEP188] | < 3 | < 3 | < 3 | < 3 | 72.2 µg | < 3 | < 3 | < 3 | < 3 | 
3 | ADNPYQRGPDPTPASVAAVNGPFATASVSVPAGYGFGGGMIYYPTDTSQGTFGGIAISPGYTALFSAELAWMGPWLASHGFVVIGIETNSRNDFDEARGTQLLAALDYLTQQSPVRTRVDPNRLAVSGHSMGGGGALNAAIRRPSLKAAVGLAPFLPSSNLANDRVPTMVFAGQQDTVVSPSYVTNLYNSLPATTESAYLEIAGGDHGFPVGRPNQVMIRTMLPFVKIFLDNDTRYSQFLCPLMDSTGVVTYRSTCPLLPPGLPTTPPTSTSSNPTVGPTTPSTTAPTTTPAPGGACTATYRTTNSWPGGFQGEVTITAGSSAINGWTVRWTLGSGQTISQVWNGEVSITGSTVSVRNAPYNGSLPASGSTTFGFLGGGSPSSPSLTCTSP [TEP165] | 4.5 ± 0.71 | 11 | 52 ± 2.8 | 67 ± 11 | 433 µg | 12 | 25 | 46 ± 1.4 | 45.5 ± 2.1 | PET hydrolysis ([1]; substrate: aFilm, 40 °C, pH 4.5): < 3; PET hydrolysis ([1]; substrate: aFilm, 40 °C, pH 5.5): < 3; PET hydrolysis ([1]; substrate: aFilm, 40 °C, pH 6.5): 2 ± 2.8; PET hydrolysis ([1]; substrate: aFilm, 40 °C, pH 7.5): < 3; PET hydrolysis ([1]; substrate: aFilm, 60 °C, pH 4.5): 2 ± 2.8; PET hydrolysis ([1]; substrate: aFilm, 60 °C, pH 5.5): < 3; PET hydrolysis ([1]; substrate: aFilm, 60 °C, pH 6.5): 1.5 ± 2.1; PET hydrolysis ([1]; substrate: aFilm, 60 °C, pH 7.5): < 3
4 | AEPATIHGPAPTEESITAPTGPFEIDRETVPRSTVEGFGGGTIYYPTDTSEGTFSAVAIAPGYTAGQETLAWLGPRLASQGFVVFTIDTITTSDRPDARAEQLAASLDYLTGSSEVQDRIDPARLGVMGHSMGGGGALQAALDDPGLKAAIPMTPWNTVKDFSGVRTPTMIIGAQNDTVAPVAQHSEPFYESLPDDPGKAYLELAGASHFAPNRDDTTIAKSSIAWLKRFLDDDTRYDRFLCPPPQDPEISDYRATCPY [DP023] |  | < 3 | < 3 | < 3 | 33 µg |  |  |  |  | PET hydrolysis [1, 11]: < 3
5 | AETTTQHGPDPTEGSITAPTGPFQTDQKTVPRSSVQGFGGGTIYYPTETSQGTFGAVTIAPGYTAGKESLAWLGPRLASQGFVVFTIDTITTSDQPDSRAKQLMASLDYLTGDSDVRDRIDTSRLAVMGHSMGGGGTLEAARDNRNLKAAIPMTPWDTTKDFSGVQTPTLIIGAQNDTIAPVAQHAKPFYGSLPDDPGKAYLELAGASHFAPNQDNTTIAKSSIAWLKRFVDDDTRYDQFLCPPPQDAEISDYQSTCPY [TEP037] | < 3 | 5 | < 3 | < 3 | 77 µg | < 3 | < 3 | < 3 | < 3 | 
6 | ATAAPLPHAAADNPYQRGPDPTIAMIESTRGPFATASVSVPPGNGFNGGMIYYPTDTSQGTWGALAIVPGYTALFANEEAWMGPWLSSFGFVVIGVETNSRTDFDTARGTQLLAALDYLTTKSPVHDRVDPNRLSVLGHSMGGGGVVYATEHRPSLKAAVALAPFSPSQNMSTDTVPTMVIGGQNDTVVTPSYVDGLYATLPATTPSDFAQIAGADHVYYTHPNNVEMKLLIPWLKTFVDNDTRYTQFLCPTLPDPSTVSAYRPKCPYVPGGGTTPPPTGNTGPLHAVGAGKCLNAGASGSQAQIQDCTGGASQVWTHTDANQLSVTNGSQLCLDASGQGTSPGTKVITWACNGQPNQQWTVNSDGTVKGVQSGLCLDVSGASTASGALVQLWTCNGQPNQQWRLG [TEP062] | < 3 | < 3 | < 3 | < 3 | 85.2 µg | < 3 | < 3 | < 3 | < 3 | 
7 | ATPARPASVAAAPAAVQRAADNPYQRGPAPTEASITAEKGPFAVETIPVPAGSGTGFNKGTVYAPTDTSEGTFGAIVVSPGFVSPEAWISWYGPRLASQGFVVMTLETNSLVDVPASRGDQLLAALDWLTGKSSVKNRIDASRTAVMGHSMGGGGTLEAANKRPSLKADIPLAPWDTNYNFPNIKTPTLIMGADNDLIAPASSMAESYYNNITTAPEKAYLLLKNAGHMTFVSPNTTIAKYSIAWMKRFVDNDTRYDQFLCPAPKPDANIAKYLDTCPNG [DP016] |  | 4 | 14 | 17 | 83 µg |  | 10 | 10 | 7 | PET hydrolysis [1, 11]: 4; PET hydrolysis [1, 12]: < 3
8 | ATTAAAPAAAVRADSPYQRGPAPTEASVTAARGPFAIAQVTVPAGSGTGFNKGTIYYPTDTGQGTFGGVAVMPGFTSPQSVIQWLGPRLASQGFLVFTLDSLSLVDFPTARSQQLLAALDYLATRSTVRTRLDPNRLAVMGHSMGGGASLWAAQNRPSLKASVPLAPWETDTTWQGVRVPTMIIGGQADTVAPPATMAIPDYTSMTSAPEKAYLELRNGGHGAPATESPTVAKYALSWLKRFVDLDTRYDQFLCPAPAPTTAISQYRDTCPNG [DP058] |  | < 3 | < 3 | < 3 | 52 µg |  | < 3 | < 3 | < 3 | PET hydrolysis [1, 11]: < 3; PET hydrolysis [1, 12]: < 3
9 | CAAGGPGASPGLQPTIASLSVDGAFKVMTYTDIPDVPEFGDATVYYPADTPTPIGGVAISPGWTEAQRHINWWGPRLASHGYAVLVLDTNDARRDQPEERAEALIAAVRILRGENDRAESPLQGRVDTGKMAIMGHSMGGGGTLIAANKYPDEIQAAIPFTPWQPDGDFGQITAPTLVMAGSADRVAGVADHAWPHYQSIPETTTKVFMEVDGGNHFIADTRRGTDLGTIGRYGIAWLKLYLDGDERYRSFIYGAEAEVDREKFSRYLTSP [TEP119] | < 3 | < 3 | < 3 | < 3 | 78.9 µg | < 3 | < 3 | < 3 | < 3 | 
10 | CATAGSALVSAPSLSGDGSYEVQTYTDFPDVPEFGAATIYYPVGASEPMGGVAIAPGFTEEQRHIAWWGPRLASHGYAVLVLDTNDRRERPDARADALIAGVTLLRAEGRRRGSPLFGRIDAAKMAIMGHSMGGGGALLAADEHSDLIRAAIPFTPWEPETDLRGISAPTLVLAGAADRVAEVEGHAWRHFSMIPESTPKVYMEIAGGDHYIADTTRGMDLATVGRYAIAWLKLYVDGDEQYRDLIYGEIPPADAAKFSRYVVNP [TEP157] | < 3 | < 3 | < 3 | < 3 | 80.2 µg | < 3 | < 3 | < 3 | < 3 | 
11 | DQIGQAPTASNITGDGSFAVTSSAVSGQTGFGGGTVYYPTQTGTYPVVAIMPGFLELWDAIKWMGPRLASWGYVVVGVNPNSVFDLPDSRGSQLLAALNWAVGSAPSAVQSRADGTRRGVVGYSMGGGGTLEALSRDTSGKVLAGVAFSPWDTNQNWSTVRQPEFIVGAQNDTVAPPAQHAIPFYNSLAGPKTYVELAGADHLWPTSDNPTGSRAMVSWLKRWLNSDSRFTPFTCGFTGSAISASMSNAC [ESM047] | 20 | 55 | 47 | 8 | 48.3 µg |  |  |  |  | 
12 | YQRGPDPTRSALTADGPFSVTTYTVSRYAVTGFGGGVIYYPTGTSLTFGGIAVSPGYTADASSLAWFGRRLASHGFVVLVINTNSRFDFPDSRASQLAAALDYLVSRSPSAVRARLDTSRLAVAGHSMGGGATLRISENRPSLKAAVPLTPWHTDKTFNTAVPQLIIGAENDTVAPVSDHAIPFYQNLPSTTPKVYLELNNASHF [TEP127] |  |  |  |  | < 25 µg |  |  |  |  | 
13 | YRPVVAFRVKVRKLERAIGESMASVARMQGRYLRASTLTAVAAATIVGCYLRGPDPTVELVESPVGPFEVETVLVPSTVDGFGGGEIYDPVDEDYSFGGIAVVPGVGIDRSRLEWYGPRLASHGFVVFLIETDSVWDVPDQRGEQLIAALDYMTTQSAVVDVVDPKRLAVMGYSFGGGGVIHATRLKPDLKAAIPLAMWFWDNDQSASTVPHLLISCEIDFENDAHTGAVYESRPASTARAMMEIAGADHQCIKQDGSTEQQ [TEP130] |  |  |  |  | < 25 µg |  |  |  |  | 
14 | YYPTSTSDGTFGAVVVTPGFTATESSMAWLGPRLASQGFVVFTIDTLTTLDQPDSRGRQMLAALDYLTERSSARTRIDGTRLGVIGHSMGGGGTLEAAKSRPSLKAAIPLTPWNLDKTWPEVTTPTLVVGADGDTVAPVATHAKPFYSSLPSSTDRAYLELNNATHFAPN [TEP120] |  |  |  |  | < 25 µg |  |  |  |  | 
15 | YYSGATLYYPIDAPEPFASIVIVPGWGMPESTIQDWGPFFASWGIVAMTIGTNNPNYDWPEERAEALLDAIETIKQEDGRINSPVYGKIDLNSFAVSGWSMGGGGAQLAAVMEPTLKAVIALCPWLDNWVLGPDDLNHSVPILIFSGENDVNAPPYLHADIHYNYTPAATDKLLFEVENGDHYVANGPDGGSGYIGDRAHEWLKKYLLDDFSNCELLLEVPPTASQYLTNIECESVIQGDLNGDGVIDILDIIILVNMILNDEYNSIADLNEDGELNILDVVTIVNLVLFGDDSVCIDIDGNIYETVQIGDQLWMAENLKVTHYNDGSEITHIINSDDWGNYNEGQYGVYDNDPSNADIYGNLYNWYTVDDDRGVCPEGFHAPSDEEFMELEIFLGMSESEANSTGNRGTNEGSKLADNADLWISGNLENNAEFGMSGFNGLPAGHRLYDNGYYSSMGNFVSYWSSTEHSSNYAWNRELEYHASVVYRFYATKQFGFSIRCLGD [TEP063] |  |  |  |  | < 25 µg |  |  |  |  | 
